We go through 1 molecule from US20130156764A1, “NEUTRALIZATION OF FLT3 LIGAND AS A LEUKEMIA THERAPY” (The Johns Hopkins University, priority 2010, published 2013).

For experiment [1], the system named is FLT3/ITD in primary AML blasts. Description: FL stimulation, FLT3 phosphorylation in primary AML blasts with homozygous FLT3/ITD. The class given is cell-based, human. Particulars: 100 ng/mL FL. As to the method: (§1) To study whether further activation of mutant FLT3 receptors in response to FL also occurs in primary cells, experiments were carried on primary AML blasts expressing homozygous FLT3/ITD mutations (i.e., no detectable wild type FLT3 by PCR). The blasts were stimulated with 100 ng/mL FL. […] The survival of AML blasts was assessed by culturing them in complete medium with and without FL for 4 days.

Experiment [2] has as its system STAT5 and AKT phosphorylation. Kind of experiment: FL stimulation, downstream signaling in MV411 cells. The class given is cell-based, human.
Another experiment concerns the target T1, FLT3/ITD in MV411 cells (Homo sapiens, UniProt P36888, INS600HVDFREYEYD).
T1 construct: endogenous in cells; host or cells: MV411
T1 sequence (P36888 with tags, fused parts or gaps INS600HVDFREYEYD): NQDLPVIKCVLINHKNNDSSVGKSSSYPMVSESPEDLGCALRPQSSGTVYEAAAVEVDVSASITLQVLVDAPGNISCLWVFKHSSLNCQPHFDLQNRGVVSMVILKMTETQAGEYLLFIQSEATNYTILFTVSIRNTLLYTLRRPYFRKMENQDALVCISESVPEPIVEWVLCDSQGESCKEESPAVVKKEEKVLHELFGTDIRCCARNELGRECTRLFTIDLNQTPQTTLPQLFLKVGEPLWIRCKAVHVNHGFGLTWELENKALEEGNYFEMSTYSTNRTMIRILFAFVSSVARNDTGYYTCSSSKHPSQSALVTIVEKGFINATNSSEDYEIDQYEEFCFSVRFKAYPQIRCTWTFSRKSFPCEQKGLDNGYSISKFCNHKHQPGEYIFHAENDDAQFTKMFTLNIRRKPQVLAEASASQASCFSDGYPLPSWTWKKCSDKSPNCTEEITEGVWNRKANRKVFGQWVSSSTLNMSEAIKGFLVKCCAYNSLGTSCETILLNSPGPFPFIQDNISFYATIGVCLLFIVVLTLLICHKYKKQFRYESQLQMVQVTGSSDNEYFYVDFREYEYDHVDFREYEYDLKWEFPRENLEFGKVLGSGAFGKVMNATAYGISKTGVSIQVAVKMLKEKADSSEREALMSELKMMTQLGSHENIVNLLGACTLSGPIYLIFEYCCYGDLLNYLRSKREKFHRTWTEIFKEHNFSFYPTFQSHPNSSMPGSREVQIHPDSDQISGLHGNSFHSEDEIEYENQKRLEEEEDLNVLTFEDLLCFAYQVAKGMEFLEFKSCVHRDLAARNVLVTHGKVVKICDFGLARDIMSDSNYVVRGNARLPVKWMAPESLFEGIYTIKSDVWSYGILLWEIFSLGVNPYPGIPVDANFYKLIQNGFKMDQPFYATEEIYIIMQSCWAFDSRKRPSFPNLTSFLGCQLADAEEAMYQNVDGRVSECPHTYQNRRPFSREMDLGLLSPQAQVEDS
Description: FL stimulation, FLT3 phosphorylation in MV411 cells. The class given is cell-based.

In experiment [3] the test system is TF1/ITD and TF1/TKD cells. Description: Apoptosis (Annexin V/7AAD) and survival of TF1/ITD and TF1/TKD cells with FL. The class given is cell-based. Particulars: for survival (viable cell numbers): serum free medium; for apoptotic population: serum-free, 48 hours, presence of FL. The method, then:
Evaluation of apoptosis was performed by annexin V/7-AAD staining according to the recommendations of the manufacturer (Becton Dickinson, San Jose, Calif.). After serum starvation, 5×10^5 cells were washed with cold PBS and re-suspended in 100 μL of binding buffer. Following incubation with 5 μL of annexin V-PE and 5 μL of 7-AAD in the dark for 15 minutes at room temperature, cells were analyzed by flow cytometry (FACSort, Becton Dickinson) with Cell Quest software (Becton Dickinson). Compensation was performed with samples stained with either annexin V-PE or 7-AAD alone.
(§2) 2×10^4 cells in 100 μl serum-free medium were plated into triplicate wells of 96-well plates. Survival was assessed by MTT assay (Roche, Indianapolis, Ind.) and viable cell number counting by trypan blue (GIBCO, Rockville, Md.) exclusion according to the manufacturer's instructions.
The possibility of further activation of FLT3 mutant receptors by exogenous FL was also tested in cell lines in which FL autocrine, paracrine, or intracrine stimulation of FLT3 receptor might exist. […] TF1 cells expressing FLT3 mutant receptors were starved for 16 hours in serum-free medium and washed once with PBS to deplete soluble FL (either produced by the cells or contained in the serum). These cells were then stimulated with exogenous FL for 15 minutes. More than 2-fold enhancement of FLT3 phosphorylation was detected in both TF1/ITD and TF1/TKD cell lines (FIG. 12A). […] To assess the functional effect of exogenous FL, TF1/ITD and TF1/TKD cells were cultured in serum-free medium in the absence and presence of FL for 48 hours. Apoptosis was assessed by Annexin V and 7AAD staining followed by FACS analysis. […] There was no change of cell cycle status in response to FL in these cells (data not shown).

A further experiment concerns MAPK phosphorylation. Kind of experiment: FL stimulation, MAPK phosphorylation in primary AML blasts with homozygous FLT3/ITD. Particulars: 100 ng/mL FL. The class given is cell-based, human. As to the method:
as §1

Experiment [4] relates to BaF3/ITD and BaF3/TKD cells. Description: Survival (MTT, trypan blue) of BaF3/ITD and BaF3/TKD cells with FL. The class given is cell-based. Particulars: serum-free, 4 days. The method, then:
as §2
BaF3 is another cell line lacking expression of endogenous FLT3. BaF3 cells transfected with mutant forms of FLT3 were starved in serum-free medium for 16 hours and washed with PBS before FL stimulation. […] Changes of other FLT3 downstream signals were not observed. An MTT survival assay was performed in BaF3/ITD and BaF3/TKD cells cultured in serum-free medium in the presence and absence of FL for 4 days. […] The effect was also confirmed by counting viable cell numbers by trypan blue exclusion (FIG. 13C, P<0.05). These findings indicate that FL stimulation prolongs the survival of cells expressing FLT3 mutants.

B1: FL: Recombinant human FL (fms-related tyrosine kinase ligand) purchased from PeproTech; SEQ ID NO: 1 (protein, listed as Homo sapiens)
chain: MTVLAPAWSPTTYLLLLLLLSSGLSGTQDCSFQHSPISSDFAVKIRELSDYLLQDYPVTVASNLQDEELCGGLWRLVLAQRWMERLKTVAGSKMQGLLERVNTEIHFVTKCAFQPPPSCLRFVQTNISRLLQETSEQLVALKPWITRQNFSRCLELQCQPDSSTLPPPWSPRPLEATAPTAPQPPLLLLLLLPVGLLLLAAAWCLHWQRTRRRTPRPGEQVPPVPSPQDLLLVEH
Consider B1, for which, in experiment [1], the FLT3 phosphorylation result is “enhanced FLT3 phosphorylation”. Besides, the “phosphorylation of FLT3 downstream signaling, including STAT5 and AKT” value in experiment [2] is “Slightly enhanced phosphorylation”. In addition, the “phosphorylation of FLT3” value in the experiment with FLT3/ITD in MV411 cells is listed as “increased phosphorylation”. The “cell cycle status in response to FL” value in experiment [3] (TF1/ITD and TF1/TKD) is on record as “no change”. In addition, in experiment [3] (TF1/ITD), the “survival (viable cell numbers)” value is listed as “increased the survival” and the apoptotic population was determined as 49.54%. In experiment [3] (TF1/TKD), the “survival (viable cell numbers)” value is given as “no significant difference” and the apoptotic population amounted to 31.63%. Also, the “samples with increased MAPK phosphorylation” value in the experiment with MAPK phosphorylation is reported as “two out of four samples”. In addition, the “survival (MTT, confirmed by trypan blue)” value in experiment [4] is listed as “increased survival”.
